B1: Hammerhead Ribozyme (parent)
chain: ACCGGAUGUGCUUUCCGGUCUGAUGAGUCCGUGAGGACGAAACAG

Variants of: B1
Experiment: self-cleavage, relative activity (ratio to wild type); higher = more cleavage; co-transcriptional

| Variant | self-cleavage |
| --- | --- |
| C29U G35U | 0.744 |
| G18A | 0.831 |
| G39A G45U | 0.372 |
| G39A G45C | 0.421 |
| U13G U21A | 0.507 |
| U9G A41G | 0.303 |
| G17C G35C | 0.403 |
| C2U G39U | 0.359 |
| G17U G18U | 0.442 |
| A6C A34C | 0.745 |
| U14C A44U | 0.393 |
| C3G G45C | 0.35 |
| C2G C3U | 0.36 |
| G5U G17A | 0.337 |
| G45A | 0.842 |
| U14A G25C | 0.288 |
| U12C U32G | 0.502 |
| U7G G45C | 0.441 |
| G22A U24G | 0.363 |
| A1U A34C | 0.492 |
| C29U | 0.947 |

| Variant | self-cleavage |
| --- | --- |
| G27U C30G | 0.297 |
| U9C C11A | 1.6 |
| A6U U14A | 1.06 |
| G10U A26C | 0.439 |
| U9C A37G | 1.61 |
| C20G C38A | 0.241 |
| G4C A44C | 0.422 |
| G33U A40G | 0.4 |
| C16A C43U | 0.438 |
| G8U A34C | 0.925 |
| C16U G36A | 0.636 |
| U7A G17U | 0.524 |
| C3U U32A | 0.95 |
| C3A C15U | 0.518 |
| C3A C15A | 0.312 |
| U13G A34U | 0.976 |
| G4U G35U | 0.388 |
| G18C G22C | 0.333 |
| G18C G33U | 0.708 |
| A42C C43A | 0.368 |
| G27C C43A | 0.291 |

| Variant | self-cleavage |
| --- | --- |
| A34G A41U | 0.284 |
| G25C A41C | 0.359 |
| U24C A40C | 0.47 |
| C20U G27A | 0.373 |
| C38A A42C | 0.326 |
| U12A C29U | 0.881 |
| C2G G35U | 0.272 |
| G10C G33A | 1.14 |
| A1G G25A | 0.43 |
| C15G C43G | 0.327 |
| G4U C38G | 0.323 |
| U9G C38A | 0.671 |
| G5U A44C | 0.515 |
| G4A A23U | 0.356 |
| U12C C38U | 0.832 |
| U14A G45U | 0.715 |
| C29G C30U | 0.693 |
| G10A G31C | 1.16 |
| C20G G31A | 0.319 |
| G31C G39C | 0.314 |
| G5A A34C | 1.1 |

| Variant | self-cleavage |
| --- | --- |
| C20U A40U | 0.246 |
| G4A U9A | 0.458 |
| G5U G18U | 0.343 |
| A26C C29A | 0.241 |
| U12A G22U | 0.328 |
| U7G C11A | 1.6 |
| G17C U28A | 0.391 |
| C16U G25A | 0.338 |
| U14G A26U | 0.569 |
| U21A C38A | 0.363 |
| A26C A44U | 0.344 |
| U28G G35A | 0.384 |
| G4A U7A | 0.538 |
| C2A A34C | 0.387 |
| C16A G35C | 0.573 |
| G22A G33U | 0.3 |
| U9G A42U | 0.28 |
| U7C U9G | 0.667 |
| C2G | 0.455 |
| C16A G39U | 0.336 |
